# Data published in the supplement of paper PMC11811203.
# B1: THAP1; numbered along this chain (parent)
# chain: MVQSCSAYGCKNRYDKDKPVSFHKFPLTRPSLCKEWEAAVRRKNFKPTKYSSICSEHFTPDCFKRECNNKLLKENAVPTIFLCTEPHDKKEDLLEPQEQLPPPPLPPPVSQVDAAIGLLMPPLQTPVNLSVFCDHNYTVEDTMHQRKRIHQLEQQVEKLRKKLKTAQQRCRRQERQLEKLKEVVHFQKEKDDVSERGYVILPNDYFEIVEVPA
# Variants of: B1
# Assay: THAP1 transcriptional activity (GFP+/GFP- enrichment relative to wild-type constructs) (ratio to WT); higher = more THAP1 activity (PSMB5 reporter activation)
# Conditions: with PSMB5 promoter-GFP reporter
# Method in brief: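 Activity values are replicate-mean bright/dim read fold changes divided by the mean of wild-type synonymous constructs. They come from a human THAP1 site-saturation library (residues 2–213, each changed to all 20 amino acids) delivered by lentivirus at MOI ~0.3, in duplicate, into THAP1-knockout HEK-293T cells with mClover3 at endogenous PSMB5. BFP+ cells were sorted into GFP-dim and GFP-bright bins after five days, and variants were counted by Illumina sequencing of genomic DNA amplicons.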
row,Variant,THAP1 transcriptional activity
1,P96C,0.965
2,N69V,0.399
3,N69Y,0.261
4,L32G,0.156
5,D61F,0.173
6,K147M,0.271
7,L100T,1.6
8,L100M,2.37
9,N75H,0.567
10,F81P,0.275
11,F81R,0.298
12,V20W,0.141
13,I80L,0.606
14,I80R,0.963
15,C5V,0.174
16,E85R,0.558
17,E85Q,1.16
18,P19Y,0.197
19,P19S,0.78
20,P19I,0.186
21,K18V,0.618
22,K18R,0.936
23,K18T,0.348
24,K18M,0.186

row,Variant,THAP1 transcriptional activity
1,L118N,2.21
2,L118K,0.884
3,A38V,0.684
4,V209I,0.823
5,V209R,0.953
6,V209T,0.765
7,H135P,0.31
8,H135G,0.152
9,H135Y,0.217
10,P30N,0.33
11,P30F,0.129
12,D191K,1.22
13,N128R,0.823
14,N128D,0.549
15,N128P,0.417
16,N128W,0.283
17,N128M,0.264
18,G9W,0.167
19,P108I,1.18
20,P108A,1.3
21,P108M,0.588
22,P108K,0.9
23,Q168H,0.394
24,R146N,0.584

row,Variant,THAP1 transcriptional activity
1,R146D,0.548
2,C133V,2.05
3,C133K,1.7
4,C133N,1.15
5,V131R,0.367
6,V131K,0.299
7,V131N,0.494
8,V211I,1.34
9,T28Q,0.651
10,T28E,0.172
11,T28V,0.231
12,Q99F,0.667
13,Q99G,1.87
14,Q99C,0.535
15,R175D,0.345
16,R171P,0.186
17,E35G,0.183
18,E35K,0.751
19,E35C,0.317
20,E35M,0.787
21,N12L,0.0949
22,T138I,0.274
23,T138M,0.238
24,T138N,0.196

row,Variant,THAP1 transcriptional activity
1,T138P,0.286
2,K24F,0.1
3,K24C,0.146
4,K24A,0.122
5,K24V,0.121
6,K24Q,0.0996
7,K24T,0.109
8,M143G,1.05
9,M143H,0.575
10,M143R,0.991
11,R172A,0.396
12,K161A,0.3
13,D141L,0.286
14,D141T,0.642
15,D141C,0.355
16,K90D,0.818
17,K90F,0.963
18,K90Y,0.498
19,D92C,0.866
20,D92R,1.57
21,D92I,2.59
22,E56Q,0.873
23,E56Y,0.194
24,E56D,1.26

row,Variant,THAP1 transcriptional activity
1,K49I,0.398
2,K49G,0.123
3,K49D,0.12
4,E210M,0.913
5,P101W,0.985
6,E95A,1.46
7,E95I,1.13
8,Q154L,0.867
9,Q154G,0.732
10,D113C,0.573
11,D113T,0.375
12,D113W,0.173
13,D113A,0.667
14,L27C,0.14
15,L27N,0.0759
16,L119G,0.614
17,L119Q,0.718
18,H23V,0.0823
19,H23C,0.0806
20,H23R,0.084
21,Q3D,0.119
22,A114H,0.483
23,V183A,1.11
24,P104W,0.527

row,Variant,THAP1 transcriptional activity
1,C54A,0.0793
2,C54Q,0.0652
3,C54E,0.0874
4,P212E,0.535
5,P212K,0.974
6,P212D,0.943
7,P212W,0.968
8,L159R,0.193
9,S51M,0.26
10,S51N,0.16
11,S51G,0.0575
12,A7V,0.612
13,T59D,0.292
14,T59E,1.07
15,Y14W,0.851
16,T84P,1.44
17,F45R,0.146
18,F45G,0.0858
19,E37V,0.484
20,E37S,0.558
21,F58G,0.064
22,F58E,0.149
23,F58D,0.0836
24,I200T,0.694

row,Variant,THAP1 transcriptional activity
1,I200D,0.703
2,Q176I,0.557
3,P126G,0.386
4,P126C,0.294
5,M120E,1.25
6,M120L,0.534
7,P103Q,1.15
8,E66Y,0.777
9,E66A,1.36
10,C33I,0.159
11,Y50M,0.091
12,Y50F,0.616
13,V112F,0.388
14,V112K,1.74
15,V112C,1.08
16,K179W,0.364
17,K179F,0.421
18,G117L,0.288
19,R160H,0.433
20,R160V,0.339
21,E182F,0.467
22,E182C,0.657
23,E182P,0.778
24,E182D,1.34

row,Variant,THAP1 transcriptional activity
1,R41M,0.475
2,L71E,0.221
3,L71D,0.74
4,N203V,0.886
5,N203E,1.14
6,V139A,0.763
7,V139E,0.369
8,L129F,1.16
9,K34D,0.207
10,K34S,0.646
11,H57P,0.0956
12,H57G,0.0681
13,L180Y,0.439
14,P106I,1.07
15,R42V,0.136
16,R42W,0.128
17,F186K,1.59
18,F186V,1.11
19,F186I,1.08
20,G197K,1.33
21,G197V,1.8
22,Y205H,1.38
23,Q124S,0.576
24,K64Q,0.25

row,Variant,THAP1 transcriptional activity
1,K64G,0.219
2,D134F,0.144
3,D134E,0.389
4,Q97A,0.83
5,I208D,0.924
6,I208Y,1.14
7,D192N,0.81
8,E195I,0.587
9,E195W,0.467
10,E140T,1.57
11,E140D,0.727
12,D204R,0.547
13,D204V,1.39
14,H150Y,0.767
15,H150G,0.721
16,S6L,0.0726
17,S6R,0.223
18,S55P,0.0679
19,E91L,0.546
20,E91N,0.857
21,H87E,2.22
22,T79H,0.293
23,T79P,0.18
24,T79S,0.71

row,Variant,THAP1 transcriptional activity
1,C67E,0.119
2,C67M,0.594
3,C67L,0.481
4,R169H,0.531
5,P107M,1.29
6,P107N,0.608
7,A213Y,0.711
8,A213E,0.81
9,A213H,0.644
10,S194H,1.2
11,K16I,0.197
12,K16P,0.334
13,K11Y,0.201
14,K11G,0.133
15,Q173H,0.693
16,Q173T,1.1
17,P47F,0.0757
18,P47K,0.111
19,P47A,0.896
20,K43C,0.621
21,F63L,0.0863
22,F63Q,0.0896
23,F63A,0.117
24,F63N,0.14

row,Variant,THAP1 transcriptional activity
1,F63Y,0.623
2,F63G,0.1
3,A39S,0.512
4,R29I,0.134
5,R29N,0.536
6,D15R,0.656
7,D15A,0.754
8,L105A,1.61
9,I149N,0.465
10,K70S,0.325
11,K70F,0.163
12,L72V,0.172
13,L201R,0.9
14,L201F,0.809
15,E189L,1.33
16,P86Y,0.685
17,P86C,0.542
18,P122W,0.159
19,K46W,0.148
20,K46H,0.654
21,Q167R,0.415
22,Q167L,0.245
23,L152W,0.246
24,T48Q,0.0994

row,Variant,THAP1 transcriptional activity
1,C170F,0.35
2,N136K,0.142
3,N136D,0.153
4,N136W,0.0779
5,S31R,1.01
6,V77W,0.267
7,V109E,3.82
8,L94V,1.47
9,L94T,1.14
10,L163H,0.178
11,L163V,0.545
12,L163T,0.195
13,N44L,0.205
14,N44K,0.462
15,N44G,1.06
16,F22G,0.0652
17,T125P,0.865
18,T125H,0.515
19,T125S,0.95
20,E157W,0.741
21,E157Y,0.488
22,R148M,0.261
23,C62T,0.195
24,C62V,0.0798

row,Variant,THAP1 transcriptional activity
1,K158G,0.542
2,E207S,0.559
3,F206N,0.873
4,F206D,1.24
5,F206H,1.05
6,F206S,1.09
7,S110F,0.715
8,S110E,0.424
9,S110W,0.41
10,I53N,0.0864
11,L82C,0.521
12,L82W,2.23
13,S130N,0.651
14,S130F,0.246
15,S130K,0.625
16,S130A,0.566
17,K164F,0.167
18,K164P,0.28
19,F25Q,0.0935
20,F25C,0.125
21,Y137D,0.172
22,Y137H,0.111
23,C10N,0.121
24,N68Q,0.193

row,Variant,THAP1 transcriptional activity
1,N68M,0.141
2,K188E,0.506
3,E74V,0.618
4,R13Q,0.122
5,R13A,0.17
6,R13W,0.232
7,R13G,0.106
8,E98H,0.824
9,V127I,0.501
10,V127Q,1.02
11,V127G,0.609
12,V127D,0.851
13,Y198C,0.806
14,Y198K,0.631
15,Y198T,1.13
16,Y198E,1.15
17,E178W,0.7
18,E178D,0.665
19,K162H,0.273
20,C83Y,2.11
21,D17Q,1.12
22,D17S,1.49
